Measurements: US12565517B2, “Cyclic peptide having CTLA-4 inhibitory activity and use thereof” (GeneFrontier Corporation, priority 2019, dated 2026)
Where a SMILES comes first, the peptide text is derived from it. Bridges are numbered along the chain shown (N, C = ends). Where no end group is shown, it is not given here. The star is where a group is joined. Biotin = O=C1N[C@H]2[C@H](CS[C@H]2CCCCC(=O)*)N1; PEG4 = NCCOCCOCCOCCOCCC(=O)O

What was measured:
[1] = molecular target: T1, CTLA-4 (Homo sapiens, UniProt P16410); test: Affinity measurement of synthetic biotinylated peptides by BLItz system (peptide on SA sensor chip); type: binding
T1 sequence (P16410 36-223): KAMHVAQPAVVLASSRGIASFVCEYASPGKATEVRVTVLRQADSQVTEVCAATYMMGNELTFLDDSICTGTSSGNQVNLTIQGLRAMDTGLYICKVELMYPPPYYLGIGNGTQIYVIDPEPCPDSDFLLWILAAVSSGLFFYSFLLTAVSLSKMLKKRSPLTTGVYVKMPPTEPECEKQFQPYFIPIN
Experimental: Affinity for CTLA-4 was measured using the BLItz system (forte Bio). All operations were performed according to the instruction manual of the BLItz system. The biotinylated peptides were immobilized on the SA sensor chip via streptavidin.

[2] = molecular target: T1, CTLA-4; test: ELISA binding of clones after Affinity Maturation with random library (Tables 10, 11)
Experimental: (§1) After each round of Affinity Maturation, the cyclic peptide genes were recovered and subcloned into pET-Mal vector (FIG. 2) in the same manner as described above to perform base sequence analysis. For the 94 single colonies analyzed for sequence, E. coli transformants were inoculated into 100 μL of 2×YT medium containing ampicillin (final concentration 50 μg/mL), incubated at 37° C. for 3-5 hours (OD600=0.5-0.8), then added with IPTG (final concentration 0.5 mM) and incubated at 25° C. overnight. 10 μL of E. coli cultured medium was added with 90 μL of PBS and 40 μL of lysis reagent (20 μL BugBuster Protein Extraction Reagent (Novagen), 20 μL Lysozyme solution 2.5 mg/mL) to lyse E. coli cells for 1 hour at room temperature. The cell lysate was added with 40 μL of 12.5% skim milk solution (TBST) and blocked for 1 hour at room temperature. In parallel, antigen protein was immobilized overnight at 4° C. in 384-well plates at 100 ng/20 μL per well, and each well was washed twice with 100 μL/well of TBST, added with 100 μL/well of 5% skim milk solution (TBST) for blocking for 1 hour at room temperature, and washed twice with 100 μL/well of TBST to obtain antigen-immobilized plates. 20 μL/well of blocking-treated E. coli extract was added to the antigen-immobilized plates and gently stirred at room temperature using a plate mixer. After 1 hour, the plates were washed 5 times with 100 μL/well of TBST, 20 μL/well of anti-FLAG M2-HRP conjugate (1:2000 dilution, Sigma) was added and gently stirred on a plate mixer for 1 hour at room temperature. The plates were washed 5 times with 100 μL/well of TBST, and binding of cyclic peptides to the antigen was detected by 20 μL/well of chromogenic substrate (0.4 mg/mL 3,3′,5,5′-Tetramethyl-benzidine, 0.01% hydrogen peroxide). After 15 minutes of reaction at room temperature, the reaction was stopped with 20 μL/well of 2N HCl, and absorbance at 450 nm was measured using a plate reader (infinite F200: TECAN) (Table 5).
Oligo DNAs of a library were synthesized (see below), in which amino acid residues (positions 1, 4, 8, 10, +1 and +2) (corresponding to X1, […], X8, X10, X+1 and X+2) other than those essential or advantageous for CTLA-4 binding (2H, 3P, 5L, 6P, 7I, 9S, 11H, 12F) identified by alanine scanning were randomized (NNS).
Affinity Maturation was performed in the same manner as described above. The amount of biotinylated CTLA-4 immobilized on the magnetic beads was 10 pmol in the 1st round, 2 pmol in the 2nd round, and 1 pmol in the 3nd-5th rounds, respectively. The washing period was 2 hours for the 1st round, 19 hours for the 2nd round, 67 hours for the 3nd round, 140 hours for the 4th round, and 340 hours for the 5th round. Washing frequency was 1 time (2 hours) in the 1st round, 2 times (every 10 hours) in the 2nd round, 6 times (every 10 hours) in the 3rd round, 14 times (every 10 hours) in the 4th round, and 36 times (every 10 hours) in the 5th round.

[3] = molecular target: T2, CTLA-4 (Homo sapiens, UniProt P16410); test: Evaluation of binding after Affinity Maturation selection by ELISA (S/N ratio, Table 5)
T2 construct: IgG1 Fc (own knowledge: Orencia = abatacept, CTLA4-Ig)
Experimental: The basic operation of ribosome display was performed in the same manner as described above. Detailed experimental conditions for Affinity Maturation are indicated below. 2 μL of Nanolink streptavidin magnetic beads (SoluLink) were used as magnetic beads to immobilize the antigen, and 1 mL of CTLA-4 protein solution (1 μM) was used as a wash solution. The amount of biotinylated CTLA-4 immobilized on the magnetic beads was 10 pmol in the 1st round, 2 pmol in the 2nd round, and 1 pmol in the 3rd round, respectively. The washing period was 2 hours for the 1st round, 19 hours for the 2nd round, and 67 hours for the 3rd round. The number of wash cycle was one time (2 hours) in the 1st round, two times (about every 10 hours) in the […], and six times (about every 10 hours) in the 3rd round. After each round of RT-PCR, Error-Prone PCR was performed in the same manner as described above.
as §1
T2 sequence (P16410 with tags, fused parts or gaps limits assumed): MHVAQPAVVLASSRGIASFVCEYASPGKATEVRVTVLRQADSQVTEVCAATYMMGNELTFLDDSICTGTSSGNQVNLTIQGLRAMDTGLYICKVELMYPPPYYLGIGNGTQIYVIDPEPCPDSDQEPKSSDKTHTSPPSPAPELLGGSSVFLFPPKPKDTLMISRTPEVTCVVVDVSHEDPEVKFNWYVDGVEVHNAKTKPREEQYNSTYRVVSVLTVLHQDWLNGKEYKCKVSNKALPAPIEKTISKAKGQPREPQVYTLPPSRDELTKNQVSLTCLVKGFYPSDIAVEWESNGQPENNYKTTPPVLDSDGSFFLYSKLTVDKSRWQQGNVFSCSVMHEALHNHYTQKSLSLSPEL

[4] = molecular target: T1, CTLA-4; test: Affinity measurement of CTLA-4 binding clones after Affinity Maturation (EC50 by ELISA, Table 6)
Experimental: For each of the CTLA-4 binding clones obtained by Affinity Maturation, purified N-terminal MBP fusion protein solution (400 μg/mL) was prepared and samples serially 2-fold diluted with PBS were prepared. CTLA-4 was immobilized overnight at 4° C. in 384-well plates at 100 ng/20 μL per well, and each well was washed twice with 100 μL/well of TBST, added with 100 μL/well of 5% skim milk solution (TBST) for blocking for 1 hour at room temperature, and washed twice with 100 μL/well of TBST to obtain antigen-immobilized plates. 20 μL/well of serially-diluted N-terminal MBP fusion protein solution was added to the antigen-immobilized plates and gently stirred at room temperature using a plate mixer. After 1 hour, the plates were washed 5 times with 100 μL/well of TBST, 20 μL/well of anti-FLAG M2-HRP conjugate (1:2000 dilution, Sigma) was added and gently stirred on a plate mixer for 1 hour at room temperature. Further, the plates were washed 5 times with 100 μL/well of TBST, and binding of N-terminal MBP fusion proteins to the antigen was detected by 20 μL/well of chromogenic substrate (0.4 mg/mL 3,3′,5,5′-Tetramethyl-benzidine, 0.01% hydrogen peroxide). After 15 minutes of reaction at room temperature, the reaction was stopped with 20 μL/well of 2N HCl, and absorbance at 450 nm was measured using a plate reader (infinite F200: TECAN). The graph was plotted with the vertical axis as the absorbance of ELISA and the horizontal axis as the concentration of N-terminal MBP fusion protein of the CTLA4-binding clones (FIG. 5), and the EC50 was calculated from the obtained binding curve (Table 6).

[5] = molecular target: SA (Streptomyces avidinii, UniProt P22629); test: ELISA background signal of MBP-fused cyclic peptides on SA wells (Table 5); type: binding; details: MBP-fused cyclic peptide
Experimental: as §1
An Error-Prone Library was prepared based on H12SSI-Ctla4-3-02, and Affinity Maturation selection experiments were performed. […]

[6] = CTLA-4 binding ELISA of clones after Affinity Maturation from random (NNS) library, signal/noise ratio, clones of 4th or 5th round

Chain of SA (P22629 25-183): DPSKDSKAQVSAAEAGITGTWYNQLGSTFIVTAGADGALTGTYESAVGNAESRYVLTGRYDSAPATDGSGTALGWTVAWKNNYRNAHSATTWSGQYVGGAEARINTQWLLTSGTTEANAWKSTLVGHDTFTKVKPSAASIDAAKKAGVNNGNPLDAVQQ

## CSCC[C@@H]1NC(=O)[C@@H](NC(=O)[C@H](CCCCN)NC(=O)CCOCCOCCOCCOCCNC(=O)CCCC[C@@H]2SC[C@@H]3NC(=O)N[C@@H]32)CSSC[C@@H](C(=O)O)NC(=O)[C@H](Cc2ccccc2)NC(=O)[C@H](Cc2c[nH]cn2)NC(=O)[C@H](Cc2c[nH]cn2)NC(=O)[C@H](CO)NC(=O)[C@H](C(C)C)NC(=O)[C@H](C(C)C)NC(=O)[C@H](CC(C)C)NC(=O)[C@H](CC(C)C)NC(=O)[C@H](Cc2ccccc2)NC(=O)[C@@H]2CCCN2C(=O)[C@H](Cc2c[nH]cn2)NC1=O [biotinylated H12SSI-Ctla4-3-02] ({Biotin-PEG4}-KCMHPFLLVVSHHFC-OH; disulfide 2-15; C-terminus assumed)
[1]; read-out: ka
  kon: 115000 M⁻¹ s⁻¹
[1]; synthetic Biotin-PEG4-Lys peptide immobilized, BLItz
  kd: 0.022 s⁻¹

## C4m#19-5th4w-NN6-34 (GGCFHPFLPIRSDHFCSR; C4m#19-5th4w-NN6-34)
[2]; [6]
  ELISA S/N(SA): 32.2

## C4m#19-5th4w-NN6-57 (GGCMHPYLPIVSVHFCPC; C4m#19-5th4w-NN6-57)
[2]; [6]
  ELISA S/N(SA): 27.7

## C4m3127-4th-NNS6-20 (GGCLHPFLPILSLHFCPF; C4m3127-4th-NNS6-20) [Clone C4m3127-4th-NNS6-20]
[2]; [6]
  ELISA S/N(SA): 4.4

## C4m#19-5th4w-NN6-50 (GGCKHPVLPIWSWHFCRI; C4m#19-5th4w-NN6-50)
[2]; [6]
  ELISA S/N(SA): 28.1

## C4m#19-5th4w-NN6-9 (GGCFHPYLPIRSWHFCGR; C4m#19-5th4w-NN6-9)
[2]; [6]
  ELISA S/N(SA): 28.8

## C4m#19-5th2w-NNS6-67 (GGCQHPWLPISSWHFCPR; C4m#19-5th2w-NNS6-67)
[2]; [6]
  ELISA S/N(SA): 25.5

## C4m#19-5th4w-NN6-58 (GGCRHPFLPISSIHFCCI; C4m#19-5th4w-NN6-58)
[2]; [6]
  ELISA S/N(SA): 18.7

## C4m3127-4th-NNS6-90 (GGCKHPVLPIVSLHFCPW; C4m3127-4th-NNS6-90) [Clone C4m3127-4th-NNS6-90]
[2]; [6]
  ELISA S/N(SA): 22.9

## C4m#19-5th2w-NNS6-51 (GGCRHPFLPIVSLHFCPF; C4m#19-5th2w-NNS6-51)
[2]; [6]
  ELISA S/N(SA): 15.8

## C4m3127-4th-NNS6-12 (GGCSHPFLPIRSRHFCPF; C4m3127-4th-NNS6-12) [Clone C4m3127-4th-NNS6-12]
[2]; [6]
  ELISA S/N(SA): 15.8

## C4m#19-5th2w-NNS6-30 (GGCWHPFLPILSWHFCGR; C4m#19-5th2w-NNS6-30)
[2]; [6]
  ELISA S/N(SA): 9.0

## C4m3127-4th-NNS6-37 (GGCWHPVLPIRSIHFCGC; C4m3127-4th-NNS6-37) [Clone C4m3127-4th-NNS6-37]
[2]; S/N ratio of CTLA-4 binding in ELISA, clones from 4th or 5th round of Affinity Maturation from random (NNS) library
  ELISA S/N(SA): 3.5

## CLHPFLPIVSHHFCGR (cysteine pairing not given here; also: MBP fusion) [#10]
[3]; MBP-fused cyclic peptide, Orencia wells, absorbance at 450 nm
  ELISA MBP-fusion Orencia (absorbance at 450 nm): 1.1444
[3]; ratio of Orencia signal to SA signal, binding = S/N not less than 2
  ELISA MBP-fusion S/N(SA): 18.5
[4]; EC50 by ELISA, MBP fusion cyclic peptides
  CTLA-4 affinity improved over the original clone: about 50 fold
[4]; N-terminal MBP fusion protein of the CTLA-4 binding clone, EC50 calculated from ELISA binding curve
  EC50: 0.082 µM
[5]
  ELISA MBP-fusion SA (absorbance at 450 nm): 0.0617

## C4m3127-4th-NNS6-83 (GGCRHPFLPIFSKHFCEL; C4m3127-4th-NNS6-83) [Clone C4m3127-4th-NNS6-83]
[2]; [6]
  ELISA S/N(SA): 20.7

## C4m3127-4th-NNS6-30 (GGCWHPCLPILSPHFCPR; C4m3127-4th-NNS6-30) [Clone C4m3127-4th-NNS6-30]
[2]; [6]
  ELISA S/N(SA): 7.5

## C4m#19-5th2w-NNS6-53 (GGCLHPWLPIRSFHFCGA; C4m#19-5th2w-NNS6-53)
[2]; [6]
  ELISA S/N(SA): 11.4

## C4m#19-5th2w-NNS6-87 (GGCLHPYLPIFSVHFCAL; C4m#19-5th2w-NNS6-87)
[2]; [6]
  ELISA S/N(SA): 4.5

## C4m3127-4th-NNS6-87 (GGCRHPWLPIVSWHFCSR; C4m3127-4th-NNS6-87) [Clone C4m3127-4th-NNS6-87]
[2]; [6]
  ELISA S/N(SA): 21.4

## C4m#19-5th2w-NNS6-26 (GGCLHPFLPIVSIHFCSA; C4m#19-5th2w-NNS6-26)
[2]; [6]
  ELISA S/N(SA): 5.8

## C4m#19-5th4w-NN6-81 (GGCFHPYLPIRSWHFCSR; C4m#19-5th4w-NN6-81)
[2]; [6]
  ELISA S/N(SA): 32.3

## C4m#19-5th2w-NNS6-61 (GGCCHPWLPIRSVHFCPF; C4m#19-5th2w-NNS6-61)
[2]; [6]
  ELISA S/N(SA): 4.3

## C4m#19-5th4w-NN6-70 (GGCMHPFLPIRSMHFCPL; C4m#19-5th4w-NN6-70)
[2]; [6]
  ELISA S/N(SA): 35.5
